{"source": "FireProtDB (doi:10.1016/j.jmb.2005.09.061)", "parents": {"B1": {"name": "Alpha-lactalbumin, P00712 (parent)", "chain": "MMSFVSLLLVGILFHATQAEQLTKCEVFQKLKDLKDYGGVSLPEWVCTAFHTSGYDTQAIVQNNDSTEYGLFQINNKIWCKDDQNPHSRNICNISCDKFLDDDLTDDIVCAKKILDKVGINYWLAHKALCSEKLDQWLCEKL"}}, "note": "Where “and” joins values, the source holds several entries; their conditions need not be identical. Equal entries are not always repeated.", "data": [{"variants_of": "B1", "conditions": "Capra hircus; pH 7; Thermal; CD; sodium cacodylate 50 mM; NaCl 50 mM; reversible: Yes; structure 1HFY; whole UniProt chain shown", "units": {"heat capacity change of unfolding": "kcal/mol/K"}, "values": [{"variant": "MMSFVSLLLVGILFHATQAEQLTKCEVFQKLKDLKDYGGVSLPEWVCTAFHTSGYDAQAIVQNNDSTEYGLFQINNKIWCKDDQNPHSRNICNISCDKFLDDDLTDDIVCAKKILDKVGINYWLAHKALCSEKLDQWLCEKL", "Tm": "59 °C and 54.1 °C", "change of melting temperature, mutant - wild type (higher = more stable)": "-6.8 °C and -4.9 °C", "heat capacity change of unfolding": 1.8, "unfolding enthalpy (van 't Hoff)": "68.8 kcal/mol and 62.5 kcal/mol"}]}]}
